In article PMC4780765, “Role of Interaction and Nucleoside Diphosphate Kinase B in Regulation of the Cystic Fibrosis Transmembrane Conductance Regulator Function by cAMP-Dependent Protein Kinase A” (PLoS ONE, 2016):

Experiments:
[1] = biological target: T1, cystic fibrosis transmembrane conductance regulator (human (endogenous in 16HBE14o-), UniProt P13569 1-1480); test: far-Western, overlay or dot blot; blot of a CFTR immunoprecipitate or of 16HBE14o- membrane proteins, 100 μg, overlaid with 1 μg recombinant NDPK-B without or with cAMP or 8-Br-cAMP (100 μM); probed for NDPK-B; conditions: one partner purified
T1 construct: CFTR, endogenous in the wild type human bronchial epithelial cell line 16HBE14o-; band at 175 kDa; also called CFTR; ABCC7; source: endogenous, 16HBE14o- cells (membrane fraction, lysates, immunoprecipitates)
T1 sequence (P13569 whole entry): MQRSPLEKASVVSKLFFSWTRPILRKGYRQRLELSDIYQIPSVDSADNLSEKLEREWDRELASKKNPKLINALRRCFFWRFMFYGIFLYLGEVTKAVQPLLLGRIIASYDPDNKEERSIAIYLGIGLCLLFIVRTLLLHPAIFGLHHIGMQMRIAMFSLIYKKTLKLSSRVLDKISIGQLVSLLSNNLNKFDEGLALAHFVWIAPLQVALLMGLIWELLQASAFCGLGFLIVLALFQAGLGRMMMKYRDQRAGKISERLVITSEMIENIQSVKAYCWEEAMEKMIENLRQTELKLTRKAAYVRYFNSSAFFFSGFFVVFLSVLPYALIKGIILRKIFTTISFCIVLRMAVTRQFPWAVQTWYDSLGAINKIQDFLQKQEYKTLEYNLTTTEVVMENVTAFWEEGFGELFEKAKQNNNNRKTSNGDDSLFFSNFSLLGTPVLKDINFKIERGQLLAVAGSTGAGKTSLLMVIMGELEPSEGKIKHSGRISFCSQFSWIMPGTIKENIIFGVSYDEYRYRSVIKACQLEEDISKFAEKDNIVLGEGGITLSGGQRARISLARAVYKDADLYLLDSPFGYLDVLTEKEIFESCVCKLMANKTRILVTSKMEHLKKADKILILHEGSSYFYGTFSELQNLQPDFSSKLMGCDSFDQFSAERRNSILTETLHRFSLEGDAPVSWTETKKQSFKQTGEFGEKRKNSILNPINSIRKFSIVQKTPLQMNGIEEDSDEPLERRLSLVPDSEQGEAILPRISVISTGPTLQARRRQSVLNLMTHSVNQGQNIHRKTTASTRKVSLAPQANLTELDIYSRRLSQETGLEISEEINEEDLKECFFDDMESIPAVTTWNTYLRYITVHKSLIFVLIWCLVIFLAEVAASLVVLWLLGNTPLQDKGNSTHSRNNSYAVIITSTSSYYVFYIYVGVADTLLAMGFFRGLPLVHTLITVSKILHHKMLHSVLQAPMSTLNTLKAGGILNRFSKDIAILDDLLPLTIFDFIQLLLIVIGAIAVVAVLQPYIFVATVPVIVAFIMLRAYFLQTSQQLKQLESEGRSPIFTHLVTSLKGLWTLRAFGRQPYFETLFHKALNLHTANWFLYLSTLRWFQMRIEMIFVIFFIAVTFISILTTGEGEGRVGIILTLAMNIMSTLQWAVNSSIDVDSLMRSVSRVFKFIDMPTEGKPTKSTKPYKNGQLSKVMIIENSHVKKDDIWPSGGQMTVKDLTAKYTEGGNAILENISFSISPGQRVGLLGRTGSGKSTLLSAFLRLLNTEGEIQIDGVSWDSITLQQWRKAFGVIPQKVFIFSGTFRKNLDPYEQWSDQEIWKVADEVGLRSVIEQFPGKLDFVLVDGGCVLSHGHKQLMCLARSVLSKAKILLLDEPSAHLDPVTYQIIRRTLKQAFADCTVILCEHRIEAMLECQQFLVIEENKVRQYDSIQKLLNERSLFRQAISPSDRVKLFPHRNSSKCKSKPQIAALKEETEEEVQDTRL

[2] = biological target: T1, cystic fibrosis transmembrane …; test: co-IP; CFTR or NDPK-B immunoprecipitates from 16HBE14o- membranes; cells untreated, treated with FSK (10 μM)/IBMX (100 μM) for 30 min, or with PKI (100 nM) or H-89 (1 μM) for 5 min before FSK/IBMX; conditions: partners not purified
[3] = biological target: T1, cystic fibrosis transmembrane …; test: far-Western, overlay or dot blot; blot of SDS-PAGE-separated 16HBE14o- membrane proteins (100 μg) overlaid with 16HBE14o- cytosol proteins (0.5 mg) in TBS with 5% milk, 60 min at room temperature, without or with cAMP, 8-Br-cAMP or dioctanoyl-cAMP (100 μM); probed for NDPK-B; conditions: partners not purified

fold increase of NDPK-B staining at 175 kDa with 8-Br-cAMP (100 μM) over overlay without cAMP [1]	fold increase of co-immunoprecipitation with FSK/IBMX over untreated cells [2]	fold increase of NDPK-B staining at 175 kDa with dioctanoyl cAMP (100 μM) over overlay without cAMP [3]	Binder
20 fold	–	–	human recombinant nucleoside diphosphate kinase B isoform (natural protein, human recombinant nucleoside diphosphate kinase B (NDPK-B, NM23-H2); 16 kDa on the gel; also called NDPK-B; purified NDPK-B; source: recombinant, purified; prepared and provided by Professor Ioan Lascu) ANLERTFIAIKPDGVQRGLVGEIIKRFEQKGFRLVAMKFLRASEEHLKQHYIDLKDRPFFPGLVKYMNSGPVVAMVWEGLNVVKTGRVMLGETNPADSKPGTIRGDFCIQVGRNIIHGSDSVKSAEKEISLWFKPEELVDYKSCAHDWVYE
–	3 fold	20 fold	nucleoside diphosphate kinase B (natural protein, human (endogenous in 16HBE14o-), UniProt P22392 1-152, looked up, nucleoside diphosphate kinase B (NDPK-B, NM23-H2), endogenous in the human bronchial epithelial cell line 16HBE14o-; also called NDPK-B; NDPK B; source: endogenous, 16HBE14o- cells (membrane and cytosol fractions, lysates)) MANLERTFIAIKPDGVQRGLVGEIIKRFEQKGFRLVAMKFLRASEEHLKQHYIDLKDRPFFPGLVKYMNSGPVVAMVWEGLNVVKTGRVMLGETNPADSKPGTIRGDFCIQVGRNIIHGSDSVKSAEKEISLWFKPEELVDYKSCAHDWVYE
